What all share (assay): co-IP
The target in assay [1] is myc-UBQLN1 (human) (human) (UniProt Q9UMX0).
The target of assay [2] is Rv1926c-V5 (Mycobacterium tuberculosis) (UniProt P9WIP1).
In assay [3] the target is Rv1566-V5 (Mycobacterium tuberculosis).

Results on 2 substances are retold here after publication PMC4520715.

UniProt P9WIP1, sequence (P9WIP1 30-159): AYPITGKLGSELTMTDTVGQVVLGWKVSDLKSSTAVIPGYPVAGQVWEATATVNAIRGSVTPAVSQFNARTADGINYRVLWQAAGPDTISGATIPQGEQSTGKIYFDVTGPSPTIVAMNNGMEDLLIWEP

For Rv1566-V5 (natural protein), the percent of the amount directly precipitated in assay [1] turned out to be 7%.

Consider “myc-UBQLN1 (human) (from UniProt Q9UMX0 1-589) (natural protein)”, for which the percent of the amount precipitated directly with the myc antibody in assay [2] is 27%. The percent of the amount directly precipitated in assay [3] was found to be 7%.
